These results are taken from paper PMC4895914 (2014).

What all share (assay): fluorescence polarization
The target in one assay is T1, 3m* (not fully specified; reading uncertain).
T1 chain: {FITC-PEG}-PL[His(π-(CH2)8Ph,τ-CH2CH2CH(OH)CH2OH)]S[pT]

The target of a further assay is T2, 3c* (not fully specified (residue 3); reading uncertain; also: His N(tau)-hydroxyalkyl, not given here).
T2 chain: {FITC-PEG}-PLHS[pT]

Another assay deals with T3, 2a* (not fully specified; reading uncertain).
T3 chain: {FITC-PEG}-PL[His(π-(CH2)8Ph)]S[pT]

Square brackets hold non-standard residues; d marks the D form. Ends that are not written are not given here. * marks the point of attachment. His(π-(CH2)8Ph,τ-CH2CH2CH(OH)CH2OH) = His N(pi)-(CH2)8Ph and N(tau)-CH2CH2CH(OH)CH2OH; FITC = O=C1OC2(c3ccc(O)cc3Oc3cc(O)ccc32)c2ccc(NC(=S)*)cc21; His(π-(CH2)8Ph) = N[C@@H](Cc1cncn1CCCCCCCCc1ccccc1)C(=O)O; pT = C[C@@H](OP(=O)(O)O)[C@H](N)C(=O)O; PEG = not defined here

B1: Plk2 PBD PBD (protein)
chain: HLSSPAKNFFKKAAAALFGGKKDKARYIDTHNRVSKEDEDIYKLRHDLKKTSITQQPSKHRTDEELQPPTTTVARSGTPAVENKQQIGDAIRMIVRGTLGSCSSSSECLEDSTMGSVADTVARVLRGCLENMPEADCIPKEQLSTSFQWVTKWVDYSNKYGFGYQLSDHTVGVLFNNGAHMSLLPDKKTVHYYAELGQCSVFPATDAPEQFISQVTVLKYFSHYMEENLMDGGDLPSVTDIRRPRLYLLQWLKSDKALMMLFNDGTFQVNFYHDHTKIIICSQNEEYLLTYINEDRISTTFRLTTLLMSGCSSELKNRMEYALNMLLQRCN
On to B1, for which the values for the dissociation constant Kd with 3m*, with 3c* and in the assay with 2a* were 24 nM, 43 nM and 400 nM, respectively.

B2: Plk3 PBD PBD (protein)
chain: TPPNPARSLFAKVTKSLFGRKKKSKNHAQERDEVSGLVSGLMRTSVGHQDARPEAPAASGPAPVSLVETAPEDSSPRGTLASSGDGFEEGLTVATVVESALCALRNCIAFMPPAEQNPAPLAQPEPLVWVSKWVDYSNKFGFGYQLSSRRVAVLFNDGTHMALSANRKTVHYNPTSTKHFSFSVGAVPRALQPQLGILRYFASYMEQHLMKGGDLPSVEEVEVPAPPLLLQWVKTDQALLMLFSDGTVQVNFYGDHTKLILSGWEPLLVTFVARNRSACTYLASHLRQLGCSPDLRQRLRYALRLLRDRSPA
B2: the Kd in the assay with 3m* was 62 nM; with 3c* it was 240 nM; with 2a*, 306 nM.
